Laboratory results reported in patent US20250122291A1 (CEPHALON, published 2025).
Substitutions are numbered along the chain they refer to.

Legend:
[1] = target: T1, native human TrkA expressed endogenously on SH-SY5Y cells (human, UniProt P04629 33-796); experiment: flow cytometry on SH-SY5Y cells, anti-human IgG Fc secondary, MFI, average of three experiments
T1 construct: whole, on cells

[2] = target: native rat TrkA on PC12 cells (rat, UniProt P35739 33-799); experiment: cell-based or functional assay
[3] = target: T2, hTrkC-ECD-His (human, UniProt Q16288 32-429); experiment: SPR, target amine-coupled on CM5 chip, 25 C, pH 7.4
T2 construct: extracellular domain; Immobilised on a CM5 chip by amine coupling; also called human TrkC

[4] = target: T3, hp75NTR-His (human, UniProt P08138 29-250); experiment: as above
T3 construct: extracellular domain; Immobilised on a CM5 chip by amine coupling; also called human p75NTR
T3 sequence (looked up): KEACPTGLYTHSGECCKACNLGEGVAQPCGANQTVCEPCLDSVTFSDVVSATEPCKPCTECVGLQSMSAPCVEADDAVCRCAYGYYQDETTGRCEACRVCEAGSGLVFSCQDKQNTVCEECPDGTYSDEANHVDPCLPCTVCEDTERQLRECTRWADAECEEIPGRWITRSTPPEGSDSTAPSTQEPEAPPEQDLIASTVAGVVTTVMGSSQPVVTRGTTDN

[5] = target: T4, hTrkB-Extracellular Domain-poly C-terminal Histidine tagged (human, UniProt Q16620 32-430); experiment: as above
T4 construct: extracellular domain; Immobilised on a CM5 chip by amine coupling; also called hTrkB-ECD-His; human TrkB

[6] = target: T5, recombinant human TrkA (human, UniProt P04629 33-423, limits assumed); experiment: SPR, antibody captured on protein A chip, TrkA as analyte, single concentration, 1:1 model
T5 construct: also called hTrkA
T5 sequence (P04629 33-423 limits assumed): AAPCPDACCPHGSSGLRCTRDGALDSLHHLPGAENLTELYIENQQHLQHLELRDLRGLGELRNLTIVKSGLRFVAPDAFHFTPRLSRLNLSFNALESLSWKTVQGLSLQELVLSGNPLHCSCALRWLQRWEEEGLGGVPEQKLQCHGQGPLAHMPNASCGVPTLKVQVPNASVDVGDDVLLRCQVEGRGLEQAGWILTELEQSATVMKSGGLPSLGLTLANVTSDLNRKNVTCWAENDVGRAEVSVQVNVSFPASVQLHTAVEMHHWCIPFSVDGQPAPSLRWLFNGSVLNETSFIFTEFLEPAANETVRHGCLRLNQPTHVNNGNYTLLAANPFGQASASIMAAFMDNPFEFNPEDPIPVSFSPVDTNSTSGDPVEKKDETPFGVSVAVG

Sequence of native rat TrkA on PC12 cells (P35739 33-799): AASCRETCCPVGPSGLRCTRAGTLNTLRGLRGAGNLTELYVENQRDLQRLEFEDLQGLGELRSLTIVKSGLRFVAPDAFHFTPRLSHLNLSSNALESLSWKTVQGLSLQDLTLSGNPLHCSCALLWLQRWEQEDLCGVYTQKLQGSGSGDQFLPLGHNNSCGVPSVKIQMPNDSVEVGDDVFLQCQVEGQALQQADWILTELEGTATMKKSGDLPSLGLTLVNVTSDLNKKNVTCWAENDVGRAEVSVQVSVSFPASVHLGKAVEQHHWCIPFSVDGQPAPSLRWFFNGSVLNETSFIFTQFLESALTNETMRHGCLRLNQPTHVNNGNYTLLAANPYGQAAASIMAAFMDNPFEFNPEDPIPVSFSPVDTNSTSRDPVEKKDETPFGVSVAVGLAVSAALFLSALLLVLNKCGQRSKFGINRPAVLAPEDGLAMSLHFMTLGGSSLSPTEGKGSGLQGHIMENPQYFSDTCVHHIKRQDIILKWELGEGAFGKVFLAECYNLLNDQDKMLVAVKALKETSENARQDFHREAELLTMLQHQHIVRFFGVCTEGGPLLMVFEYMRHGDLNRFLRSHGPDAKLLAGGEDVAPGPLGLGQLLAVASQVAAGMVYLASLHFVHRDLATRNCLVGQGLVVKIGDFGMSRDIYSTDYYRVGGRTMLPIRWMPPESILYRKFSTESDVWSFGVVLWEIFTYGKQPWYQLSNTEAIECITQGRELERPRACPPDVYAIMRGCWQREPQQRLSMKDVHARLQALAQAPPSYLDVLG
T1 sequence (P04629 33-796): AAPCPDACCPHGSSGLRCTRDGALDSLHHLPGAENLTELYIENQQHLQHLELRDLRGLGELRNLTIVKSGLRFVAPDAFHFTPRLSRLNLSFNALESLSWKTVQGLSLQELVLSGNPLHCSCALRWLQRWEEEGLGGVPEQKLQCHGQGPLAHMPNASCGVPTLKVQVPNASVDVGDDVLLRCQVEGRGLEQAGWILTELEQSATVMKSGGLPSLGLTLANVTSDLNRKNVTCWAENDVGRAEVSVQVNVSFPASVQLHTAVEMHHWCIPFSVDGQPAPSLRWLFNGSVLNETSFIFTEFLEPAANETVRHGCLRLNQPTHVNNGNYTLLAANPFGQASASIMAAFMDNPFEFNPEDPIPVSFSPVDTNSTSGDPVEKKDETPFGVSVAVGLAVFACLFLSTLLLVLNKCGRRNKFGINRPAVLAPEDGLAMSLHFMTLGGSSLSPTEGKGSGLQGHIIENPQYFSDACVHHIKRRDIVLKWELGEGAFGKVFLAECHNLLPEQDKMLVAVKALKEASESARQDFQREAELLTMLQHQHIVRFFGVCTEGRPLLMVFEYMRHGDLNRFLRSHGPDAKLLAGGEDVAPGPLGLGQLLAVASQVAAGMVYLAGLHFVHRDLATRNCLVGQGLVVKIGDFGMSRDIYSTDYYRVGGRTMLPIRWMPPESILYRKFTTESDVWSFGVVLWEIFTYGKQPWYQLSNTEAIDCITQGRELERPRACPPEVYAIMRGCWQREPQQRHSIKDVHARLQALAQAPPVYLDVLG
T4 sequence (Q16620 32-430): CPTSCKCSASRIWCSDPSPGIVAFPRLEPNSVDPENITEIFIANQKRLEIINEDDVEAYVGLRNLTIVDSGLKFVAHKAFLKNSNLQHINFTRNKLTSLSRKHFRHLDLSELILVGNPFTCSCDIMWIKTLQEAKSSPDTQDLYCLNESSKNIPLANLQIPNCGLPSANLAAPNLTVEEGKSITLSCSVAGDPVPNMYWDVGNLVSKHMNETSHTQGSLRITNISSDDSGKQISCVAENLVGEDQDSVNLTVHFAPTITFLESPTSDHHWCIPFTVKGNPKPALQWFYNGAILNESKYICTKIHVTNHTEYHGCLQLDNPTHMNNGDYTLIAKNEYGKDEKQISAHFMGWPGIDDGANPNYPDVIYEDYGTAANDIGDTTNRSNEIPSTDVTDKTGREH

B1: anti-TrkA antibody Ab82, full length (antibody, V domains shown)
VH: QVQLQESGPGLVKPSGTLSLTCAVSGGSISSSNWWTWVRQPPGKGLEWIGEIYHRGNRNYNPSLKSRVTISVDKSKNQFSLKLSSVTAADTAVYYCARAPWFDYWGQGTLVTVSS
VL: SSELTQDPAVSVALGQTVRITCQGDALRSYYASWYQQKPGQAPVLVIYGKGNRPSGIPDRFSGSSSGNTASLTITGAQAEDEADYYCASQASSGNHLIFGGGTKLTVLG
notes: also called full length Ab82; full-length antibody
Work on B1 yielded an EC50 [1] of 275000 pM, an Akt phosphorylation in PC12 cells, EC50 [2] of 501 pM and an Erk phosphorylation in PC12 cells, EC50 [2] of 540 pM. For the same binder, the TrkA receptor phosphorylation in PC12 cells (AlphaLISA p-TrkA Tyr674/675), EC50 [2] was 341 pM, the neurite outgrowth in PC12 cells at 138 hours, EC50 [2] was 85.8 pM and the binding result [3] was “no binding (tested: 1 nM)”. B1: no binding (tested: 1 nM) [4]; no binding (tested: 1 nM) [5].

B2: anti-TrkA antibody Ab142 (antibody, V domains shown)
VH: EVQLQESGPGLVKPSGTLSLTCAVSGGSISSSNWWTWVRQPPGKGLEWIGEIYHRGNRNYNPSLKSRVTISVDKSKNQFSLKLSSVTAADTAVYYCARAPWFDYWGQGTLV
VL: SSELTQDPAVSVALGQTVRITCQGLSLRSYYASWYQQKPGQAPVLVIYGKNKRPSGIPDRFSGSSSGNTASLTITGAQAEDEADYYCNSQASSGNHLIFGGGTKLT
For B2, the Kd [6] was 999 pM, the koff [6] was 0.000254 s⁻¹ and the “Akt pathway activation (pEC50)” value [2] was 9.53 pEC50. For the same binder, the “Erk pathway activation (pEC50)” value [2] was 9.54 pEC50 and the “Neurite outgrowth (pEC50)” value [2] was 9.97 pEC50.

B3: anti-TrkA antibody Ab145 (antibody, V domains shown)
VH: B2 VH
VL: B2 VL with N88A
With B3 the Kd [6] was 1500 pM, the koff [6] was 0.000299 s⁻¹ and the “Akt pathway activation (pEC50)” value [2] was 9.68 pEC50. For the same binder, the “Erk pathway activation (pEC50)” value [2] was 9.89 pEC50 and the “Neurite outgrowth (pEC50)” value [2] was 10.1 pEC50.

B4: anti-TrkA antibody Ab147 (antibody, V domains shown)
VH: B2 VH
VL: B2 VL with N51G, K52N, A91D
Work on B4 yielded a Kd [6] of 1190 pM, a koff [6] of 0.000314 s⁻¹ and a kon [6] of 264000 M⁻¹ s⁻¹. For the same binder, the “Akt pathway activation (pEC50)” value [2] was 9.25 pEC50, the “Erk pathway activation (pEC50)” value [2] was 9.11 pEC50 and the “Neurite outgrowth (pEC50)” value [2] was 10.1 pEC50.
